Common to all, as to experiment: SAXS
The target of assay [1] is TrK13-A578S (truncated and strep-tagged recombinant PfKelch13 with A578S) (P. falciparum 3D7).
In assay [2] the target is TrK13-C580Y (truncated and strep-tagged recombinant PfKelch13 with C580Y) (P. falciparum 3D7).
In assay [3] the target is TrK13-R539T (truncated and strep-tagged recombinant PfKelch13 with R539T) (P. falciparum 3D7).
Assay [4] addresses TrK13-WT (truncated and strep-tagged recombinant PfKelch13, wild type) (P. falciparum 3D7).

“TrK13-A578S (truncated and strep-tagged recombinant PfKelch13 with A578S) (domain or fragment)”: the stoichiometry N in assay [1] amounted to 6.
In the case of “TrK13-C580Y (truncated and strep-tagged recombinant PfKelch13 with C580Y) (domain or fragment)”, in assay [2], the stoichiometry N was 6.
Take “TrK13-R539T (truncated and strep-tagged recombinant PfKelch13 with R539T) (domain or fragment)”: the stoichiometry N in assay [3] turned out to be 6.
On to “TrK13-WT (truncated and strep-tagged recombinant PfKelch13, wild type) (domain or fragment)”, for which, in assay [4], the stoichiometry N is 6.

(Values after article doi:10.1101/2021.02.07.430181.)
